Test results: EP4799649A1 (RemeGen Co., Ltd., dated 2026)

T1: APRIL homotrimer (UniProt O75888 105-250, limits assumed)
T1 construct: also called a proliferation-inducing ligand
T1 sequence (looked up): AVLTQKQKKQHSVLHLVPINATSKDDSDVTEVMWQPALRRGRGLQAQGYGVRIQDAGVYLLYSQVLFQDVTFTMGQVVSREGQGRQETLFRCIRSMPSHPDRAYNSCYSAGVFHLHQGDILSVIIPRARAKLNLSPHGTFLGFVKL


Experiments:
APRIL homotrimer = target: T1, APRIL homotrimer; assay: ELISA on APRIL homotrimer
Blys homotrimer = target: T2, Blys homotrimer (UniProt Q9Y275 134-285); assay: ELISA on Blys homotrimer
T2 construct: also called BAFF; B lymphocyte stimulator

Row | EC50 (APRIL homotrimer) [nM] | EC50 (Blys homotrimer) [nM] | Binder
1 | 1.1 | 0.219 | telitacicept (Fc fusion, TACI-Fc fusion protein (truncated TACI plus optimized human IgG1 Fc); also called RC18; Tai'ai) SRVDQEERFPQGLWTGVAMRSCPEEQYWDPLLGTCMSCKTICNHQSQRTCAAFCRSLSCRKEQGKFYDHLLRDCISCASICGQHPKQCAYFCENKLRSPVNLPPELDKTHTCPPCPAPEAEGAPSVFLFPPKPKDTLMISRTPEVTCVVVDVSHEDPEVKFNWYVDGVEVHNAKTKPREEQYNSTYRVVSVLTVLHQDWLNGKEYKCKVSNKALPSSIEKTISKAKGQPREPQVYTLPPSRDELTKNQVSLTCLVKGFYPSDIAVEWESNGQPENNYKTTPPVLDSDGSFFLYSKLTVDKSRWQQGNVFSCSVMHEALHNHYTQKSLSLSPGK
2 | 0.128 | 0.057 | povetacicept (Fc fusion, Fc fusion protein of an engineered TACI domain) SLSCRKEQGEYYDHLLRDCISCASICGQHPKQCADFCENKLRSGSGGGGSEPKSSDKTHTCPPCPAPEAEGAPSVFLFPPKPKDTLMISRTPEVTCVVVDVSHEDPEVKFNWYVDGVEVHNAKTKPREEQYNSTYRVVSVLTVLHQDWLNGKEYKCKVSNKALPAPIEKTISKAKGQPREPQVYTLPPSRDELTKNQVSLTCLVKGFYPSDIAVEWESNGQPENNYKTTPPVLDSDGSFFLYSKLTVDKSRWQQGNVFSCSVMHEALHNHYTQKSLSLSPG
